Measurements taken from the supplement of paper PMC9112550, “Optimization of the antimicrobial peptide Bac7 by deep mutational scanning” (BMC Biology, 2022).

What follows are sequences tested on Escherichia coli TOP10 (assay: shrunken log2 fold change of peptide-encoding DNA abundance (4.5 h post-induction vs induction); higher = less antimicrobial activity (less host growth inhibition)). Details: time post-induction: 4.5 h; library: site-saturation at positions 5, 18, 19, 20.
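Further: peptides expressed intracellularly from a pBAD plasmid library in pooled LB shake-flask culture, induced with 0.3% L-arabinose, DNA abundance read by NGS, three biological replicates, DESeq2 with apeglm shrinkage.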

Row | Sequence | shrunken log2 fold change
1 | RRIRCRPPRLPRPRPRPQIEPRP | -0.335
2 | RRIRCRPPRLPRPRPRPQIHPRP | -0.548
3 | RRIRCRPPRLPRPRPRPQITPRP | -0.639
4 | RRIRCRPPRLPRPRPRPQKIPRP | -0.252
5 | RRIRCRPPRLPRPRPRPQKQPRP | 0.0183
6 | RRIRCRPPRLPRPRPRPQLKPRP | -0.194
7 | RRIRCRPPRLPRPRPRPQLLPRP | -0.23
8 | RRIRCRPPRLPRPRPRPQLNPRP | -0.188
9 | RRIRCRPPRLPRPRPRPQLTPRP | -0.147
10 | RRIRCRPPRLPRPRPRPQLVPRP | 0.569
11 | RRIRCRPPRLPRPRPRPQMYPRP | -0.14
12 | RRIRCRPPRLPRPRPRPQNDPRP | -0.505
13 | RRIRCRPPRLPRPRPRPQNHPRP | -0.612
14 | RRIRCRPPRLPRPRPRPQQPPRP | 0.345
15 | RRIRCRPPRLPRPRPRPQRVPRP | -0.158
16 | RRIRCRPPRLPRPRPRPQSEPRP | -0.398
17 | RRIRCRPPRLPRPRPRPQSMPRP | -0.419
18 | RRIRCRPPRLPRPRPRPQSRPRP | -0.016
19 | RRIRCRPPRLPRPRPRPQSSPRP | -0.103
20 | RRIRCRPPRLPRPRPRPQSTPRP | -0.673
21 | RRIRCRPPRLPRPRPRPQVAPRP | 0.0924
22 | RRIRCRPPRLPRPRPRPQWMPRP | -0.0314
23 | RRIRCRPPRLPRPRPRPQWWPRP | 0.433
24 | RRIRCRPPRLPRPRPRPQYMPRP | -0.784
25 | RRIRCRPPRLPRPRPRPRAVPRP | 0.405

Row | Sequence | shrunken log2 fold change
26 | RRIRCRPPRLPRPRPRPRCDPRP | -0.047
27 | RRIRCRPPRLPRPRPRPRCRPRP | 0.285
28 | RRIRCRPPRLPRPRPRPRDDPRP | 0.274
29 | RRIRCRPPRLPRPRPRPRDIPRP | -0.132
30 | RRIRCRPPRLPRPRPRPRDVPRP | 0.227
31 | RRIRCRPPRLPRPRPRPRFRPRP | 0.201
32 | RRIRCRPPRLPRPRPRPRGYPRP | 0.471
33 | RRIRCRPPRLPRPRPRPRKEPRP | 0.239
34 | RRIRCRPPRLPRPRPRPRKKPRP | -0.125
35 | RRIRCRPPRLPRPRPRPRLRPRP | 0.925
36 | RRIRCRPPRLPRPRPRPRMCPRP | 0.337
37 | RRIRCRPPRLPRPRPRPRMIPRP | 0.306
38 | RRIRCRPPRLPRPRPRPRPGPRP | 0.733
39 | RRIRCRPPRLPRPRPRPRQLPRP | 0.0916
40 | RRIRCRPPRLPRPRPRPRQSPRP | 0.139
41 | RRIRCRPPRLPRPRPRPRRNPRP | -0.0367
42 | RRIRCRPPRLPRPRPRPRRRPRP | 0.496
43 | RRIRCRPPRLPRPRPRPRWIPRP | 0.0454
44 | RRIRCRPPRLPRPRPRPRWRPRP | 0.442
45 | RRIRCRPPRLPRPRPRPRYLPRP | -0.799
46 | RRIRCRPPRLPRPRPRPSACPRP | -0.0897
47 | RRIRCRPPRLPRPRPRPSCHPRP | -0.301
48 | RRIRCRPPRLPRPRPRPSCQPRP | -0.375
49 | RRIRCRPPRLPRPRPRPSELPRP | -0.107
50 | RRIRCRPPRLPRPRPRPSEQPRP | -0.0681

Row | Sequence | shrunken log2 fold change
51 | RRIRCRPPRLPRPRPRPSFYPRP | -0.793
52 | RRIRCRPPRLPRPRPRPSHRPRP | -0.508
53 | RRIRCRPPRLPRPRPRPSIAPRP | -0.3
54 | RRIRCRPPRLPRPRPRPSIYPRP | -0.713
55 | RRIRCRPPRLPRPRPRPSKTPRP | -0.0722
56 | RRIRCRPPRLPRPRPRPSMVPRP | -0.312
57 | RRIRCRPPRLPRPRPRPSPIPRP | -0.32
58 | RRIRCRPPRLPRPRPRPSQEPRP | 0.0585
59 | RRIRCRPPRLPRPRPRPSQWPRP | -0.337
60 | RRIRCRPPRLPRPRPRPSRKPRP | -0.227
61 | RRIRCRPPRLPRPRPRPSVNPRP | -0.348
62 | RRIRCRPPRLPRPRPRPSVPPRP | -0.784
63 | RRIRCRPPRLPRPRPRPSWAPRP | 0.18
64 | RRIRCRPPRLPRPRPRPSWFPRP | -0.147
65 | RRIRCRPPRLPRPRPRPTACPRP | -0.0786
66 | RRIRCRPPRLPRPRPRPTARPRP | 0.105
67 | RRIRCRPPRLPRPRPRPTCCPRP | -0.354
68 | RRIRCRPPRLPRPRPRPTCFPRP | 0.152
69 | RRIRCRPPRLPRPRPRPTCLPRP | 0.00222
70 | RRIRCRPPRLPRPRPRPTEIPRP | -0.146
71 | RRIRCRPPRLPRPRPRPTETPRP | -0.0479
72 | RRIRCRPPRLPRPRPRPTFNPRP | -0.525
73 | RRIRCRPPRLPRPRPRPTGHPRP | -0.113
74 | RRIRCRPPRLPRPRPRPTGKPRP | 0.355
75 | RRIRCRPPRLPRPRPRPTHKPRP | 0.298

Row | Sequence | shrunken log2 fold change
76 | RRIRCRPPRLPRPRPRPTLFPRP | 0.196
77 | RRIRCRPPRLPRPRPRPTLHPRP | -0.0488
78 | RRIRCRPPRLPRPRPRPTLIPRP | 1.65
79 | RRIRCRPPRLPRPRPRPTMAPRP | -0.0611
80 | RRIRCRPPRLPRPRPRPTTDPRP | -0.0121
81 | RRIRCRPPRLPRPRPRPTTEPRP | 0.419
82 | RRIRCRPPRLPRPRPRPTTRPRP | 0.176
83 | RRIRCRPPRLPRPRPRPTVCPRP | -0.0924
84 | RRIRCRPPRLPRPRPRPTVGPRP | 0.224
85 | RRIRCRPPRLPRPRPRPTWMPRP | -0.18
86 | RRIRCRPPRLPRPRPRPTWYPRP | -0.28
87 | RRIRCRPPRLPRPRPRPTYIPRP | -0.959
88 | RRIRCRPPRLPRPRPRPVACPRP | -0.0888
89 | RRIRCRPPRLPRPRPRPVAKPRP | 0.275
90 | RRIRCRPPRLPRPRPRPVCCPRP | 0.0914
91 | RRIRCRPPRLPRPRPRPVENPRP | 0.112
92 | RRIRCRPPRLPRPRPRPVFRPRP | -0.128
93 | RRIRCRPPRLPRPRPRPVGWPRP | 0.64
94 | RRIRCRPPRLPRPRPRPVHKPRP | 0.287
95 | RRIRCRPPRLPRPRPRPVHSPRP | -0.107
96 | RRIRCRPPRLPRPRPRPVHYPRP | -0.0961
97 | RRIRCRPPRLPRPRPRPVILPRP | -0.799
98 | RRIRCRPPRLPRPRPRPVLHPRP | -0.199
99 | RRIRCRPPRLPRPRPRPVMVPRP | -0.211
100 | RRIRCRPPRLPRPRPRPVNCPRP | -0.0215

Row | Sequence | shrunken log2 fold change
101 | RRIRCRPPRLPRPRPRPVPEPRP | 0.316
102 | RRIRCRPPRLPRPRPRPVPKPRP | 0.339
103 | RRIRCRPPRLPRPRPRPVQEPRP | 0.286
104 | RRIRCRPPRLPRPRPRPVQKPRP | -0.0201
105 | RRIRCRPPRLPRPRPRPVRSPRP | 0.549
106 | RRIRCRPPRLPRPRPRPVSKPRP | -0.109
107 | RRIRCRPPRLPRPRPRPVTHPRP | -0.29
108 | RRIRCRPPRLPRPRPRPVTIPRP | -0.461
109 | RRIRCRPPRLPRPRPRPVTPPRP | 0.23
110 | RRIRCRPPRLPRPRPRPVTRPRP | 0.197
111 | RRIRCRPPRLPRPRPRPVVFPRP | -0.123
112 | RRIRCRPPRLPRPRPRPVWTPRP | 0.0232
113 | RRIRCRPPRLPRPRPRPWAFPRP | -0.0432
114 | RRIRCRPPRLPRPRPRPWARPRP | -0.188
115 | RRIRCRPPRLPRPRPRPWCVPRP | -0.0995
116 | RRIRCRPPRLPRPRPRPWCYPRP | -0.831
117 | RRIRCRPPRLPRPRPRPWDFPRP | -0.0326
118 | RRIRCRPPRLPRPRPRPWEAPRP | 0.0139
119 | RRIRCRPPRLPRPRPRPWEIPRP | 0.0501
120 | RRIRCRPPRLPRPRPRPWFSPRP | -0.208
121 | RRIRCRPPRLPRPRPRPWGEPRP | -0.0965
122 | RRIRCRPPRLPRPRPRPWGQPRP | -0.00973
123 | RRIRCRPPRLPRPRPRPWILPRP | -0.357
124 | RRIRCRPPRLPRPRPRPWIMPRP | -0.275
125 | RRIRCRPPRLPRPRPRPWIQPRP | -0.000687

Row | Sequence | shrunken log2 fold change
126 | RRIRCRPPRLPRPRPRPWKNPRP | 0.0137
127 | RRIRCRPPRLPRPRPRPWKRPRP | -0.0584
128 | RRIRCRPPRLPRPRPRPWNQPRP | -0.516
129 | RRIRCRPPRLPRPRPRPWPYPRP | -0.115
130 | RRIRCRPPRLPRPRPRPWQDPRP | -0.154
131 | RRIRCRPPRLPRPRPRPWQGPRP | -0.0944
132 | RRIRCRPPRLPRPRPRPWQIPRP | -0.153
133 | RRIRCRPPRLPRPRPRPWQVPRP | 0.00859
134 | RRIRCRPPRLPRPRPRPWRAPRP | 0.0569
135 | RRIRCRPPRLPRPRPRPWSRPRP | -0.391
136 | RRIRCRPPRLPRPRPRPWSVPRP | -0.34
137 | RRIRCRPPRLPRPRPRPWSYPRP | -0.441
138 | RRIRCRPPRLPRPRPRPWTCPRP | -0.323
139 | RRIRCRPPRLPRPRPRPWYDPRP | -0.0194
140 | RRIRCRPPRLPRPRPRPWYQPRP | -0.272
141 | RRIRCRPPRLPRPRPRPYADPRP | -0.037
142 | RRIRCRPPRLPRPRPRPYAMPRP | -0.436
143 | RRIRCRPPRLPRPRPRPYAYPRP | -0.208
144 | RRIRCRPPRLPRPRPRPYCQPRP | -0.219
145 | RRIRCRPPRLPRPRPRPYDHPRP | -0.797
146 | RRIRCRPPRLPRPRPRPYDMPRP | -0.726
147 | RRIRCRPPRLPRPRPRPYDYPRP | -0.27
148 | RRIRCRPPRLPRPRPRPYENPRP | -0.145
149 | RRIRCRPPRLPRPRPRPYFRPRP | -0.759
150 | RRIRCRPPRLPRPRPRPYFVPRP | -1.13
